In data set [1] the target is maltose binding protein (MBP)-batVP35 (Myotis lucifigus). In words: SEC-MALS. On the technique in general: Size exclusion chromatography separates by hydrodynamic size, large species first.
Data set [2] deals with eVP35 IID (MBP-eVP35 215-240 as printed) (Ebola virus, UniProt Q05127 215-340). Put plainly: filter binding.

“maltose binding protein (MBP)-batVP35 (natural protein)” yielded a stoichiometry N in data set [1] of 4.

B1: 8 bp dsRNA (dsRNA)
RNA 1: CGCAUGCG
RNA 2: CGCAUGCG
For B1, the binding signal in data set [2] was 1 fraction relative to eVP35.

In general, stoichiometry N refers to a count of units in the complex or per binding partner.

Source of the values: paper PMC6474348.
